Among the data in publication PMC9122904, “Insights into the client protein release mechanism of the ATP-independent chaperone Spy” (Nature Communications, 2022) are koff values, retold here.

Where a chain is given by its changes, count along the chain named. Numbers in names are those of the source.

Holding throughout (experiment): BLI; Octet RED96; client biotinylated and loaded on streptavidin sensors; Spy or Spy variant in solution at 0.25, 0.5, 1, 1.5 and 2 μM; 40 mM HEPES, 150 mM NaCl, pH 7.5; Kd calculated as koff/kon
Conditions in all cases: both partners purified

One assay addresses T1, Spy_(R43D) (UniProt P77754 24-161, R43D).
T1 construct: source: E. coli BL21 (DE3), purified (Ni-NTA, cation exchange, SEC); not shown: His6, N-terminal, cleaved; SUMO, N-terminal, cleaved
T1 sequence (looked up): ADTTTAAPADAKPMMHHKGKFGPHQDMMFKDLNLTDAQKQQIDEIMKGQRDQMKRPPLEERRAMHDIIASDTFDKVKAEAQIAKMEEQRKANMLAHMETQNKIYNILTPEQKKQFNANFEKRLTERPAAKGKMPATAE
The gist of the method: (§1)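 Association was recorded with an Octet RED96 as streptavidin sensors carrying client proteins, biotinylated with EZ-link NHS-biotin at a 1:1 molar ratio, sat in 40 mM HEPES, 150 mM NaCl, pH 7.5 with 0.25 to 2 μM of the analyte protein (0.25, 0.5, 1, 1.5 and 2 μM). Dissociation followed after transfer to analyte-free buffer. Both wavelength-shift phases were fitted in SigmaPlot 12.0 to obtain koff and the observed association rate, whose dependence on analyte concentration yielded kon, with Kd defined as koff divided by kon.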

A further assay concerns the target T2, Spy_(K54D R55D) (UniProt P77754 24-161, K54D | R55D).
T2 construct: source: E. coli BL21 (DE3), purified (Ni-NTA, cation exchange, SEC); not shown: His6, N-terminal, cleaved; SUMO, N-terminal, cleaved
T2 sequence (looked up): T1 sequence (looked up) with D43R, K54D, R55D
The gist of the method: as §1

The target in the next assay is T3, Spy_(R61D R62D) (UniProt P77754 24-161, R61D | R62D).
T3 construct: source: E. coli BL21 (DE3), purified (Ni-NTA, cation exchange, SEC); not shown: His6, N-terminal, cleaved; SUMO, N-terminal, cleaved
T3 sequence (looked up): T1 sequence (looked up) with D43R, R61D, R62D
The gist of the method:
as §1

Another assay deals with T4, Spy_(D26K R61D R62D) (UniProt P77754 24-161, D26K | R61D | R62D).
T4 construct: source: E. coli BL21 (DE3), purified (Ni-NTA, cation exchange, SEC); not shown: His6, N-terminal, cleaved; SUMO, N-terminal, cleaved
T4 sequence (looked up): T1 sequence (looked up) with D26K, D43R, R61D, R62D
In short, it runs like this: as §1

For another assay, the target named is T5, Spy D26K H65D (UniProt P77754 24-161, D26K | H65D).
T5 construct: source: E. coli BL21 (DE3), purified (Ni-NTA, cation exchange, SEC); not shown: His6, N-terminal, cleaved; SUMO, N-terminal, cleaved
T5 sequence (looked up): T1 sequence (looked up) with D26K, D43R, H65D
In short, it runs like this: as §1

A further assay deals with T6, Spy_(K75D) (UniProt P77754 24-161, K75D).
T6 construct: also called control protein; source: E. coli BL21 (DE3), purified (Ni-NTA, cation exchange, SEC); not shown: His6, N-terminal, cleaved; SUMO, N-terminal, cleaved
T6 sequence (looked up): T1 sequence (looked up) with D43R, K75D
In short, it runs like this:
as §1

The next assay deals with T7, Spy_(R89D) (UniProt P77754 24-161, R89D).
T7 construct: source: E. coli BL21 (DE3), purified (Ni-NTA, cation exchange, SEC); not shown: His6, N-terminal, cleaved; SUMO, N-terminal, cleaved
T7 sequence (looked up): T1 sequence (looked up) with D43R, R89D
In short, it runs like this: as §1

The next assay deals with T8, Spy_(K121D R122D) (UniProt P77754 24-161, K121D | R122D).
T8 construct: source: E. coli BL21 (DE3), purified (Ni-NTA, cation exchange, SEC); not shown: His6, N-terminal, cleaved; SUMO, N-terminal, cleaved
T8 sequence (looked up): T1 sequence (looked up) with D43R, K121D, R122D
The gist of the method: as §1

B1: Im7 H40W L53A I54A (natural protein)
chain: MELKNSISDYTEAEFVQLLKEIEKENVAATDDVLDVLLEWFVKITEHPDGTDAAYYPSDNRDDSPEGIVKEIKEWRAANGKPGFKQG
modifications: biotin (EZ-link NHS-biotin, 1:1 molar ratio of biotin to protein)
notes: Im7 (colicin E7 immunity protein) with H40W L53A I54A; Spy was made with an N-terminal His6-SUMO tag that was cleaved; also called Im7AAW; partially folded client; source: purified by a similar procedure to Spy
Take B1: the koff (in general, the rate constant with which the complex falls apart) with Spy_(R43D) was 0.533 s⁻¹; in the assay with Spy_(K54D R55D) it was 0.0743 s⁻¹; with Spy_(R61D R62D), 0.0727 s⁻¹; with Spy_(D26K R61D R62D), 0.475 s⁻¹; with Spy D26K H65D, 0.284 s⁻¹; with Spy_(K75D), 0.183 s⁻¹. For the same molecule, the off-rate constant (koff) is 0.105 s⁻¹ with Spy_(R89D) and 0.46 s⁻¹ in the assay with Spy_(K121D R122D).
